This passage reports Mean Fluorescence Intensity (surface HLA-A2) results from US20240239864A1.

This assay concerns the target HLA-A2 (HLA-A*02:01) on cells (T2 cells; K562A2 cells) (human). Nature of the assay: T2 peptide-binding assay: T2 cells with peptide at 100 µg/mL overnight, surface HLA-A2 by flow cytometry (T2 only: 3.34E+05).

As for “HPV-16 E7 p11-19 peptide (from UniProt P03129 11-19)”, the Mean Fluorescence Intensity (surface HLA-A2) was 492000.
